# Measured values reported in patent publication US11780927B2, “Anti-CD40 antibodies for use in prevention of graft rejection” (NOVARTIS AG, priority 2018, dated 2023).
# “And” between values parts separate entries of the source, which are not always exact repeats. Equal values may be shown once.
# Assays:
# human PBMCs = test: rCD154 and IL-4-mediated proliferation (3H-TdR), human PBMCs; format: cell-based
# CD20pos B cells = test: In vitro B cell depletion in human whole blood; format: cell-based; conditions: 72 hours; Rituximab 50 μg/ml, CFZ533 dose titration
# Description: See supplementary material for detailed methods. Briefly, the ability of CFZ533 to mediated depletion of CD20^pos B cells was monitored in human whole blood over a period of three days in comparison to the B cell depleting antibody Rituximab. For CDC, CFZ533 or Rituximab were incubated with RAJI B cells in the presence or absence of rabbit complement and cell lysis was assessed by luminescence.
# B cells numbers were determined based on CD45pos and CD19pos events falling within lymphocyte FSC (forward-scattered light)/SSC (side-scattered light) gate. Results for individual antibody concentrations were calculated as percent remaining B cells with reference to untreated samples and graphed as a function of log-transformed antibody concentration (adjusted to 100% and shown as a dotted line). Data represent the mean and SD of eight independent donors. […] Concentration dependent killing of the Raji cells was analyzed after 2 hours, where the viability of the cells was measured by determination of the ATP concentration in each well using luciferase. Results are presented as isotype-control normalized relative luciferase units (RLU) as a function of log-transformed antibody concentration.
# human B cell line RI-1 = test: Internalization by image flow cytometry; format: cell-based; conditions: 3 hours at 37° C.
# Description: Internalization of fluorescently tagged CFZ533 and rCD154 was assessed in vitro using the human B cell line RI-1 (Th'ng et al, 1987). CD40 dependence of CFZ533 internalization was assessed using a CD40 knockout RI-1 cell line. Internalization was assessed using an Amnis® image flow cytometer (Merck KHaA, Darnstadt) according to the manufacturer's instructions and data analyzed using ImageStream®^X software.
# FIG. 8B. Relative internalization erode of CFZ533 and rCD154 under permissive conditions (non-permissive erode values subtracted). Each dot represents data from an individual experiment and the population mean is indicated as a horizontal red line. FIG. 8C. Representative images of individual CD40 expressing or CD40 knock-out RI-1 cells cultured with Alexa488 labeled CFZ533 for 3 hours at 37° C. In all experiments, cells were co-stained with AlexaFlour 647 labeled CD45 to demark the cell membrane.
# [1] = Dose-range finding embryo-fetal development study; format: in vivo; conditions: rabbits
# From the text: Full guideline-conform reproductive toxicity studies have not been conducted thus far. However, a dose-range finding, embryo-fetal development (EFD) study in rabbits has been conducted in order to confirm the rabbit as relevant reproductive toxicology species.
# Single dose PK/PD study = format: in vivo, cynomolgus monkeys
# Description: Single dose pharmacokinetic/pharmacodynamic (PK/PD) studies utilized biologics-treatment naive cynomolgus monkeys (Macaca fascicularis) between 7.5-8.5 years old (6.5±2.6 kg) and captive-bred from Philippines (Siconbrec, Makati City, Philippines). Animal handling, care, drug treatments and blood sampling are performed according to the Swiss Federal Law for animal protection (animal licenses BS #1900, BS #1495). For the recall immunization experiments, we utilized animals from a toxicology study conducted at Covance Laboratories GmbH, Muenster, Germany, (manuscript in preparation). The study was performed according to an authorized study protocol and local standard operating procedures in strict compliance with national legal regulations on animal welfare law and accepted animal welfare standards.
# In the PK study, CFZ533 was administered to three animals at calculated single doses of 16.2 (5532), 18.5 (5531) and 20 (5530) mg/kg. […] KLH specific IgM/IgG titers were determined with sandwich ELISA using cynomolgus monkey anti-KLH IgM/IgG reference serum as standard. […]
# FIG. 9A. Serum concentrations of CFZ533 in three cynomolgus monkeys after single dose administration at calculated doses of 16.2 (5532), 18.5 (5531) and 20 (5530) mg/kg intravenously. […]
# [2] = target: T1, CD40 on peripheral B cells (Homo sapiens, UniProt P25942); test: Single-ascending dose study in healthy subjects and rheumatoid arthritis patients; format: in vivo; conditions: for Safety and tolerability: single doses up to 3 mg/kg in healthy volunteers, 10 mg/kg in RA patients
# T1 construct: CD40 occupancy on peripheral B cells measuring free CD40 and total CD40; endogenous in cells; host or cells: peripheral / whole blood B cells of healthy subjects and rheumatoid arthritis patients dosed with CFZ533
# Description: The safety, tolerability, PK and PD activity of mAb1 are being assessed in an ongoing, randomized, double-blind, placebo-controlled, single-ascending dose study of mAb1 in healthy subjects and patients with rheumatoid arthritis (RA). A total of 48 subjects have been enrolled: 36 healthy subjects who received single doses of mAb1 up to 3 mg/kg IV or S.C., and 12 patients with RA, 6 of whom received single doses of mAb1 at 10 mg/kg IV. […] An investigation of the 30 mg/kg IV dose is ongoing in RA patients. As this study is still ongoing, all clinical data are preliminary in nature and based on interim analyses conducted up to a dose of 10 mg/kg in RA patients. […]
# [3] = system: life-supporting kidney allografts; test: NHP model of kidney allograft rejection; format: in vivo, cynomolgus monkeys (Macaca fascicularis)
# PBMCs = conditions: Rhesus
# [4] = cynomolgus monkey, in vivo
# [5] = 13-week GLP toxicity study
# T1 sequence (P25942 21-277): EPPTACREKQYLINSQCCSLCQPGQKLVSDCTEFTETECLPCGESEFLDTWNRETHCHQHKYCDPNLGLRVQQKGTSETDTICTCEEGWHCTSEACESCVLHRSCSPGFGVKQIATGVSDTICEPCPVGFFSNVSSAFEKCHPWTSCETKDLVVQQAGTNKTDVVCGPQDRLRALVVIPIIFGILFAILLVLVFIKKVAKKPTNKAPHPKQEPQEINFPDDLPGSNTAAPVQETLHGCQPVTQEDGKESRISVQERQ
substance,measurement,setting,value
"CFZ533: human anti-CD40 IgG1 monoclonal antibody with Fc-silencing N297A mutation; heavy chain SEQ ID NO: 9, light chain SEQ ID NO: 10",Effect of delayed addition on rCD154-induced cellular activation,human PBMCs; added up to 6 hours after start of cultures containing rCD154,complete inhibition of cellular activation with minimal loss of potency
same,Inhibition of rCD154-induced proliferation (IC50 PBMCs),human PBMCs; human PBMCs,0.02 µg/mL
same,IC50,"human PBMCs; human PBMCs, read-out: IC50, rCD154-induced proliferation",0.12 nM
same,B cells eliminated in human whole blood,CD20pos B cells,failed to mediate any cell depletion
same,Internalization by RI-1 B cells,human B cell line RI-1,internalized
same,Effects on embryo-fetal development,[1],No effects on embryo-fetal development
same,inflection point in PK profiles (drop of CD40 saturation),"Single dose PK/PD study; serum concentration-time profiles, non-human primates",10 to 20 µg/mL
same,Depletion of peripheral blood B cells,"Single dose PK/PD study; single intravenous dose 16.2, 18.5 and 20 mg/kg",did not deplete peripheral blood B cells
same,duration of full CD40 occupancy,[2]; 1 mg/kg IV,1 week
same,duration of target engagement (full CD40 occupancy on B cells),"[2]; 3 mg/kg IV, healthy subjects",about 4 weeks
same,duration of target engagement (full CD40 occupancy on B cells),"[2]; 3 mg/kg SC, healthy subjects",about 4 weeks
same,time of peak plasma concentration,"[2]; 3 mg/kg SC, healthy subjects",3 days
same,duration of full CD40 occupancy,"[2]; 10 mg/kg IV, rheumatoid arthritis patients",8 weeks
same,duration of target engagement,"[2]; 30 mg/kg IV, rheumatoid arthritis patients",16 weeks
same,decrease in total CD40 on peripheral B cells,[2]; healthy subjects,about 50%
same,ADA incidence,"[2]; human, in vivo",2%
same,plasma concentration associated with full (≥90%) CD40 occupancy on whole blood B cells,"[2]; human, in vivo",0.3 to 0.4 µg/mL
same,duration of suppression of anti-KLH responses (full receptor occupancy),[2]; single dose of 3 mg/kg (IV and SC),3-4 weeks
same,Safety and tolerability,[2],did not reveal major safety concern
same,Safety and tolerability,[2]; listed as mAb1,safe and well tolerated
same,Days after Transplantation (median days),"[3]; CFZ533 30 mg/kg i.v. monotherapy, n 5",95 days
same,Survival of kidney allografts and graft morphology,[3]; combination with CsA (20 mg/kg p.o.) or monotherapy,demonstrated efficacy in increasing the survival of kidney allografts in NHPs
same,Inhibition of rCD154-induced proliferation (IC50 PBMCs),PBMCs,0.03 µg/mL and 0.026 ± 0.017 µg/mL
same,"average concentration at steady state (Cav,ss)",[4]; 150 mg/kg,8300 µg/mL
same,"systemic exposure (AUC, steady state conditions) over a 1-month period",[4]; 150 mg/kg,232400 µg·days/mL
same,"Cmax,ss (mean, all animals)","[4]; sc, 50 mg/kg",3235 µg/mL
same,Increased lymphoid cellularity,"[5]; weekly dosing at 10, 50 and 150 mg/kg",5/22
same,No Observed Adverse Effect Level (NOAEL),"[5]; weekly dosing, rhesus monkey",10 mg/kg
